Results published in patent publication US20190359653A1 (Genentech, published 2019).
Ends that are not written are not given here.

T1: hsFRP2 (human, UniProt Q96HF1 25-295)
T1 construct: bought (R&D Systems); also called human sFRP2
T1 sequence (looked up): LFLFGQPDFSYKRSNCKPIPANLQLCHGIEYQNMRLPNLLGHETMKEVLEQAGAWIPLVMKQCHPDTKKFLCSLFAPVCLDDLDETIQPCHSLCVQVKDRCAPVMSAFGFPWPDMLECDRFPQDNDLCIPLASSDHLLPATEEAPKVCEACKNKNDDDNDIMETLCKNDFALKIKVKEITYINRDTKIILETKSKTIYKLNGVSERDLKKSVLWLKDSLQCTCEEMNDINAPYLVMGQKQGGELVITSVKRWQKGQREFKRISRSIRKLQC

T2: hsFRP-4 (human, UniProt Q6FHJ7 22-346, limits assumed)
T2 construct: bought (R&D Systems); also called human sFRP4
T2 sequence (looked up): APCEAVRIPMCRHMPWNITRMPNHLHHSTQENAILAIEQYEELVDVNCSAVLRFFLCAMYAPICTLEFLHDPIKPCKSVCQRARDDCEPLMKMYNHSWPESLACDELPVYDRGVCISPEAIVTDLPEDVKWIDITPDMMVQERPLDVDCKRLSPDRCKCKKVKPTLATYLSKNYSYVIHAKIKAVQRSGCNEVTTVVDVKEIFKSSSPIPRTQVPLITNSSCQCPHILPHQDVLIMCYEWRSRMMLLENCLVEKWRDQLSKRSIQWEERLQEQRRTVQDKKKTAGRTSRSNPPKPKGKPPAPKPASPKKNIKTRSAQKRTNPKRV

T3: hsFRP-5 (human, UniProt Q5T4F7 30-317)
T3 construct: bought (R&D Systems); also called human sFRP5
T3 sequence (looked up): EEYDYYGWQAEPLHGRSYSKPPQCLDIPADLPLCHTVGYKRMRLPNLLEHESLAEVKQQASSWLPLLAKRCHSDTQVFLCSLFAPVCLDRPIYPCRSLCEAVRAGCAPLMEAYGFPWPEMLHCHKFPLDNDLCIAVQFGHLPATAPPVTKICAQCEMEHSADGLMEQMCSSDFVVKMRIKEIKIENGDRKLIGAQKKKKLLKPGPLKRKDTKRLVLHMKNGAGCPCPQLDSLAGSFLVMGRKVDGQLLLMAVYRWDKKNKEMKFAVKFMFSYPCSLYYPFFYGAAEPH

T4: hsFRP1 (human, UniProt Q8N474 32-314)
T4 construct: bought (R&D Systems); also called human sFRP1
T4 sequence (looked up): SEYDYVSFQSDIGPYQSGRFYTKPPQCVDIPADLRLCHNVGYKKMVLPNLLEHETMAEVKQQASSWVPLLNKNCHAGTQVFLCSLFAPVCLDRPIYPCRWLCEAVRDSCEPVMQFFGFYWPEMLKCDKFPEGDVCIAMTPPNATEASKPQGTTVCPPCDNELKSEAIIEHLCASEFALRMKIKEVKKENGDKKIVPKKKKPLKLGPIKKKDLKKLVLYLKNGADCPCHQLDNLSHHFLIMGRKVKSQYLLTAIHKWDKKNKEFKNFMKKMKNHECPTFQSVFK

T5: hsFRP-3 (human, UniProt Q92765 33-325)
T5 construct: bought (R&D Systems); also called human sFRP3
T5 sequence (looked up): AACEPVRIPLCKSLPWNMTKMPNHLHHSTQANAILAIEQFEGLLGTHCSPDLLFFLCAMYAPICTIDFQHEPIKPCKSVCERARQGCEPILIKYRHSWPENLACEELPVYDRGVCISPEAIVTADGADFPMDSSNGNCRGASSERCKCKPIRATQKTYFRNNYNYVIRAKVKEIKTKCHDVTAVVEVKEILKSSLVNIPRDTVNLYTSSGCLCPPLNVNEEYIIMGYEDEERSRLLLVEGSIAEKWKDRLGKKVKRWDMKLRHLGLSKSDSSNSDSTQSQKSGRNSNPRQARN

T6: hFZD4 CRD-Fc (human, UniProt Q9ULV1 37-180, limits assumed)
T6 construct: domain: CRD; bought (R&D Systems); not shown: Fc part
T6 sequence (looked up): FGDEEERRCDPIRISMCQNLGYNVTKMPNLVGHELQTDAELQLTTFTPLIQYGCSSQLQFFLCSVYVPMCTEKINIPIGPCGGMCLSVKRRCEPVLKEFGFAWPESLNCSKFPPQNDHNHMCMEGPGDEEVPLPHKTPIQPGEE

T7: mFZD9 CRD-Fc (mouse, UniProt Q9R216 24-176, limits assumed)
T7 construct: domain: CRD; bought (R&D Systems); not shown: Fc part
T7 sequence (looked up): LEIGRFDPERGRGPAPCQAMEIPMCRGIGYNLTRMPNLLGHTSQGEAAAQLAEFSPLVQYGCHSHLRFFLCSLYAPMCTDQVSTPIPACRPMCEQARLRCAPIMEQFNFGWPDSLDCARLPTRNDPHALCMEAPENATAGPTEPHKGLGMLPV

T8: hFZD8 CRD-Fc (human, UniProt Q9H461 28-158, limits assumed)
T8 construct: domain: CRD; bought (R&D Systems); not shown: Fc part
T8 sequence (looked up): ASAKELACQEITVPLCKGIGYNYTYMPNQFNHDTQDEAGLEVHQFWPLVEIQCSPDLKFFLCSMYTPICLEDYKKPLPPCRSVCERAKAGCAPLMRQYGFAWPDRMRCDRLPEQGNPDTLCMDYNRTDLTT

T9: hFZD10 CRD-Fc (human, UniProt Q9ULW2 21-161, limits assumed)
T9 construct: domain: CRD; bought (R&D Systems); not shown: Fc part
T9 sequence (looked up): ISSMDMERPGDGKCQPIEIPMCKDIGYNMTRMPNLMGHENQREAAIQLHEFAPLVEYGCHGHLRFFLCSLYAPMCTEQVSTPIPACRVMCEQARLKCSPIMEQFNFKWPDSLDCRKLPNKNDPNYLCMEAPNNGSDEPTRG

T10: hFZD5 CRD-Fc (human, UniProt Q13467 27-167, limits assumed)
T10 construct: domain: CRD; bought (R&D Systems); not shown: Fc part
T10 sequence (looked up): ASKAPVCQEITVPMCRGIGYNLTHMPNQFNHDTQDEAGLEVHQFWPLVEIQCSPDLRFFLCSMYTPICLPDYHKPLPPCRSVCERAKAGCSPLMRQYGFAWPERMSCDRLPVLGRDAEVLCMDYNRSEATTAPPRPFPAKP


Tests used:
[1] = molecular target: T11, FZD7 receptor of HEK293-TB cells (human, UniProt O75084 33-574); assay: cell-based or functional assay
[2] = molecular target: T11, FZD7 receptor of HEK293-TB cells; assay: cell-based or functional assay; remark: listed apart in the source
[3] = molecular target: T11, FZD7 receptor of HEK293-TB cells; assay: cell-based or functional assay; remark: listed apart in the source
hFZD1 CRD-Fc = molecular target: T12, hFZD1 CRD-Fc (human, UniProt Q9UP38 70-250, limits assumed); assay: fluorescence titration, 50 nM labelled peptide vs FZD CRD-Fc dilutions (Monolith NT.115)
T12 construct: domain: CRD; bought (R&D Systems); not shown: Fc part
T12 sequence (Q9UP38 70-250 limits assumed): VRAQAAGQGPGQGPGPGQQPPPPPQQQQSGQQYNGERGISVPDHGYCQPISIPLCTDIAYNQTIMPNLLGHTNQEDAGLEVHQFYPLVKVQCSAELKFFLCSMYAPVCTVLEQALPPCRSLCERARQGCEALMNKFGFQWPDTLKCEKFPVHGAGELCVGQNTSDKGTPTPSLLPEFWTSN

mFZD2 CRD-Fc [4] = molecular target: T13, mFZD2 CRD-Fc (mouse, UniProt Q9JIP6 29-178, limits assumed); assay: as above
T13 construct: domain: CRD; bought (R&D Systems); not shown: Fc part

mFZD7 CRD-Fc [5] = molecular target: T14, mFZD7 CRD-Fc (mouse, UniProt Q61090 33-185); assay: as above
hFZD7 CRD-Fc [6] = molecular target: T15, hFZD7 CRD-Fc (human, UniProt O75084 33-185); assay: as above
hsFRP2 = molecular target: T1, hsFRP2; assay: fluorescence size-exclusion chromatography (FSEC)
hsFRP-4 = molecular target: T2, hsFRP-4; assay: fluorescence size-exclusion chromatography (FSEC)
hsFRP-5 = molecular target: T3, hsFRP-5; assay: fluorescence size-exclusion chromatography (FSEC)
hsFRP1 = molecular target: T4, hsFRP1; assay: fluorescence size-exclusion chromatography (FSEC)
hsFRP-3 = molecular target: T5, hsFRP-3; assay: fluorescence size-exclusion chromatography (FSEC)
hFZD4 CRD-Fc = molecular target: T6, hFZD4 CRD-Fc; assay: fluorescence titration, 50 nM labelled peptide vs FZD CRD-Fc dilutions (Monolith NT.115); NC = no change
mFZD9 CRD-Fc = molecular target: T7, mFZD9 CRD-Fc; assay: as above
hFZD8 CRD-Fc = molecular target: T8, hFZD8 CRD-Fc; assay: as above
hFZD10 CRD-Fc = molecular target: T9, hFZD10 CRD-Fc; assay: as above
hFZD5 CRD-Fc = molecular target: T10, hFZD5 CRD-Fc; assay: as above
mFZD2 CRD-Fc [7] = molecular target: T13, mFZD2 CRD-Fc; assay: as above
mFZD7 CRD-Fc [8] = molecular target: T14, mFZD7 CRD-Fc; assay: as above
hFZD7 CRD-Fc [9] = molecular target: T15, hFZD7 CRD-Fc; assay: as above

Binder	binding result (hsFRP2)	binding result (hsFRP-4)	binding result (hsFRP-5)	binding result (hsFRP1)	binding result (hsFRP-3)	binding result (hFZD4 CRD-Fc)	binding result (mFZD9 CRD-Fc)	binding result (hFZD8 CRD-Fc)	binding result (hFZD10 CRD-Fc)	binding result (hFZD5 CRD-Fc)	further results
Ac-LPSDDLEFWCHVMY-NH2 [Fz7-21]											IC50, Wnt1-stimulated β-catenin signaling, HEK293-TB cells transfected with 5 ng plasmid (FIG. 2C) [1]: 1090 nM; IC50, Wnt1-stimulated β-catenin signaling, HEK293-TB cells transfected with 25 ng plasmid (FIG. 2C) [1]: 2660 nM; IC50, Wnt3a-stimulated β-catenin signaling, HEK293-TB cells transfected with 5 ng pCDNA3.2-Wnt3a (FIG. 2B) [1]: 330 nM; IC50, Wnt3a-stimulated β-catenin signaling, HEK293-TB cells transfected with 25 ng pCDNA3.2-Wnt3a (FIG. 2B) [1]: 419 nM; IC50, Wnt3a-stimulated β-catenin signaling, HEK293-TB cells, recombinant mWnt3a 50 ng/mL (FIG. 2A) [1]: 93.7 nM; IC50 (nM), TOPbrite reporter assay in HEK293-TB cells stimulated with mWnt3a (50 ng/mL) [2]: 465 nM; Reduction in fold potency vs. dimer [2]: 42 fold; IC50 (µM), Wnt3a-mediated β-catenin signaling, TOPbrite reporter in HEK293-TB cells (50 ng/mL mWnt3a) [3]: 0.1 µM
LPSDDLEFWCHVMY-NH2 (also: 5-carboxyfluorescein (5FAM) label, site not given here, synthetic) [5FAM-Fz7-21]	no binding (tested: 10 µM peptide, ~250 nM sFRP)	no binding (tested: 10 µM peptide, ~250 nM sFRP)	no binding (tested: 10 µM peptide, ~250 nM sFRP)	no binding (tested: 10 µM peptide, ~250 nM sFRP)	no binding (tested: 10 µM peptide, ~250 nM sFRP)	no binding	no binding	no binding	no binding	no binding	EC50 (hFZD1 CRD-Fc): 39 nM; EC50 (mFZD2 CRD-Fc [4]): 60 nM; EC50 (mFZD7 CRD-Fc [5]): 67 nM; EC50 (hFZD7 CRD-Fc [6]): 116 nM
LPSDDLEFWSHVMY-NH2 (also: 5-carboxyfluorescein (5FAM) label, site not given here, synthetic control peptide (C10S)) [5FAM-Fz7-21S]	no binding (tested: 10 µM peptide, ~250 nM sFRP)	no binding (tested: 10 µM peptide, ~250 nM sFRP)	no binding (tested: 10 µM peptide, ~250 nM sFRP)	no binding (tested: 10 µM peptide, ~250 nM sFRP)	no binding (tested: 10 µM peptide, ~250 nM sFRP)	no binding	no binding	no binding	no binding	no binding	binding result (mFZD2 CRD-Fc [7]): no binding; binding result (mFZD7 CRD-Fc [8]): no binding; binding result (hFZD7 CRD-Fc [9]): no binding
